In paper doi:10.1101/2022.02.09.479746 (bioRxiv, 2022):

B1: MBP-DFCP1 112-415 (isolated GTPase domain), wild type (domain or fragment, human, UniProt Q9HBF4 112-415, looked up)
chain: NKRRHPVTVYNVSNLQESLEAEEMDEETKRKKMTEKVVSFLLVDENEEIQVTNEEDFIRKLDCKPDQHLKVVSIFGNTGDGKSHTLNHTFFYGREVFKTSPTQESCTVGVWAAYDPVHKVAVIDTEGLLGATVNLSQRTRLLLKVLAISDLVIYRTHADRLHNDLFKFLGDASEAYLKHFTKELKATTARCGLDVPLSTLGPAVIIFHETVHTQLLGSDHPSEVPEKLIQDRFRKLGRFPEAFSSIHYKGTRTYNPPTDFSGLRRALEQLLENNTTRSPRHPGVIFKALKALSDRFSGEIPDDQ
B2: MBP-DFCP1 112-415 R266Q (GTPase domain with the cancer-related mutation R266Q) (domain or fragment, human, UniProt Q9HBF4 112-415, looked up)
chain: NKRRHPVTVYNVSNLQESLEAEEMDEETKRKKMTEKVVSFLLVDENEEIQVTNEEDFIRKLDCKPDQHLKVVSIFGNTGDGKSHTLNHTFFYGREVFKTSPTQESCTVGVWAAYDPVHKVAVIDTEGLLGATVNLSQRTRLLLKVLAISDLVIYQTHADRLHNDLFKFLGDASEAYLKHFTKELKATTARCGLDVPLSTLGPAVIIFHETVHTQLLGSDHPSEVPEKLIQDRFRKLGRFPEAFSSIHYKGTRTYNPPTDFSGLRRALEQLLENNTTRSPRHPGVIFKALKALSDRFSGEIPDDQ
B3: full-length FLAG-DFCP1 (Double FYVE Domain Containing Protein 1) (natural protein, human, UniProt Q9HBF4 1-777, looked up)
chain: MSAQTSPAEKGLNPGLMCQESYACSGTDEAIFECDECCSLQCLRCEEELHRQERLRNHERIRLKPGHVPYCDLCKGLSGHLPGVRQRAIVRCQTCKINLCLECQKRTHSGGNKRRHPVTVYNVSNLQESLEAEEMDEETKRKKMTEKVVSFLLVDENEEIQVTNEEDFIRKLDCKPDQHLKVVSIFGNTGDGKSHTLNHTFFYGREVFKTSPTQESCTVGVWAAYDPVHKVAVIDTEGLLGATVNLSQRTRLLLKVLAISDLVIYRTHADRLHNDLFKFLGDASEAYLKHFTKELKATTARCGLDVPLSTLGPAVIIFHETVHTQLLGSDHPSEVPEKLIQDRFRKLGRFPEAFSSIHYKGTRTYNPPTDFSGLRRALEQLLENNTTRSPRHPGVIFKALKALSDRFSGEIPDDQMAHSSFFPDEYFTCSSLCLSCGVGCKKSMNHGKEGVPHEAKSRCRYSHQYDNRVYTCKACYERGEEVSVVPKTSASTDSPWMGLAKYAWSGYVIECPNCGVVYRSRQYWFGNQDPVDTVVRTEIVHVWPGTDGFLKDNNNAAQRLLDGMNFMAQSVSELSLGPTKAVTSWLTDQIAPAYWRPNSQILSCNKCATSFKDNDTKHHCRACGEGFCDSCSSKTRPVPERGWGPAPVRVCDNCYEARNVQLAVTEAQVDDEGGTLIARKVGEAVQNTLGAVVTAIDIPLGLVKDAARPAYWVPDHEILHCHNCRKEFSIKLSKHHCRACGQGFCDECSHDRRAVPSRGWDHPVRVCFNCNKKPGDL

Molecular target: the molecule itself
Test: SEC

Stoichiometry N, 2:
B1, B2, B3
